Drawing on patent publication US20240102021A1, this text covers increase in cellular cAMP (Epac H187 FRET ratio CFP/YFP, normalized to FSK+IBMX), control MCh-expressing MNT-1 cells and increase in cellular cAMP on αMSH stimulation (Epac H187 FRET, normalized to FSK+IBMX), MNT-1 cells expressing OPN3-MCh for 2 substances.

The target in the experiment is MC1R (endogenous, MNT-1 cells) (human) (UniProt Q01726). Kind of experiment: cell-based or functional assay.
UniProt Q01726, sequence (Q01726 whole entry): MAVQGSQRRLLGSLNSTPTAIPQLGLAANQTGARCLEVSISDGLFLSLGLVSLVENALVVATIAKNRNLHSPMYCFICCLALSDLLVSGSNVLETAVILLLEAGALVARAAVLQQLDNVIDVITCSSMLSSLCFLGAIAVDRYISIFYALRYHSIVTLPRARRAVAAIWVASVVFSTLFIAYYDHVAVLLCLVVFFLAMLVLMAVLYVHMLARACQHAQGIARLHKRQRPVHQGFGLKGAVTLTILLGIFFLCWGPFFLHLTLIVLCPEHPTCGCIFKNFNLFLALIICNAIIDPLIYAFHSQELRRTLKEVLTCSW

Consider NDP-αMSH (peptide), for which the increase in cellular cAMP (Epac H187 FRET ratio CFP/YFP, normalized to FSK+IBMX), control MCh-expressing MNT-1 cells was found to be 50%.

Consider “OPN3-cMCh (from UniProt Q9H1Y3 1-402) (receptor)”, for which the increase in cellular cAMP on αMSH stimulation (Epac H187 FRET, normalized to FSK+IBMX), MNT-1 cells expressing OPN3-MCh is 10%.
